The record followed here is publication PMC2790157.

The data set concerns the target NF-kB p50 (UniProt P19838 1-433). In words: EMSA. (Mobility shift assays separate free from complexed probe on a gel.)

NF-kB p50, sequence (P19838 1-433): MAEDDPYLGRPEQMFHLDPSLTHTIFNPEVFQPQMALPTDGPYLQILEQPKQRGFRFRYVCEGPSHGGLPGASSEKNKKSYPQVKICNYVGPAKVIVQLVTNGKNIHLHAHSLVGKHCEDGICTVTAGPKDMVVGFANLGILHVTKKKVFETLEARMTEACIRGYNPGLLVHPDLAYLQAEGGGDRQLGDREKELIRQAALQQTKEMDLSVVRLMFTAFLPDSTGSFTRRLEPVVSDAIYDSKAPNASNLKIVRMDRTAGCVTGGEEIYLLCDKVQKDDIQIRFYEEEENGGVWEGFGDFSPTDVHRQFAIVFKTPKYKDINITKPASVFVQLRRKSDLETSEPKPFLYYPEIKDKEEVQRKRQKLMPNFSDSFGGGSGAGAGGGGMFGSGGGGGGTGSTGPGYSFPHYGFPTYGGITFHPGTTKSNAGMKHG

B1: NF-kB consensus (dsDNA)
DNA 1: AGTTGAGGGGACTTTCCCAGGC
DNA 2: GCCTGGGAAAGTCCCCTCAACT
On to B1, for which the binding result is given as “binds”.

B2: ING2 promoter putative NF-kB site (dsDNA)
DNA 1: CGCCGAGGGGATCCCCACTGCT
DNA 2: AGCAGTGGGGATCCCCTCGGCG
On to B2, for which the binding result is reported as “binds”.
